Experimental data from patent US7468258.

Molecular target: T1, recombinant His-tagged VWF73 peptide substrate labeled with two fluoresceins
T1 chain: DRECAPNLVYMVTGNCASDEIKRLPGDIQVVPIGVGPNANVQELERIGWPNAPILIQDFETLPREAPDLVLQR

B1: ADAMTS13 (A Disintegrin-like And Metalloprotease with ThromboSpondin type 1 motif) (protein)
chain: AAGGILHLELLVAVGPDVFQAHQEDTERYVLTNLNIGAELLRDPSLGAQFRVHLVKMVILTEPEGAPNITANLTSSLLSVCGWSQTINPEDDTDPGHADLVLYITRFDLELPDGNRQVRGVTQLGGACSPTWSCLITEDTGFDLGVTIAHEIGHSFGLEHDGAPGSGCGPSGHVMASDGAAPRAGLAWSPCSRRQLLSLLSAGRARCVWDPPRPQPGSAGHPPDAQPGLYYSANEQCRVAFGPKAVACTFAREHLDMCQALSCHTDPLDQSSCSRLLVPLLDGTECGVEKWCSKGRCRSLVELTPIAAVHGRWSSWGPRSPCSRSCGGGVVTRRRQCNNPRPAFGGRACVGADLQAEMCNTQACEKTQLEFMSQQCARTDGQPLRSSPGGASFYHWGAAVPHSQGDALCRHMCRAIGESFIMKRGDSFLDGTRCMPSGPREDGTLSLCVSGSCRTFGCDGRMDSQQVWDRCQVCGGDNSTCSPRKGSFTAGRAREYVTFLTVTPNLTSVYIANHRPLFTHLAVRIGGRYVVAGKMSISPNTTYPSLLEDGRVEYRVALTEDRLPRLEEIRIWGPLQEDADIQVYRRYGEEYGNLTRPDITFTYFQPKPRQAWVWAAVRGPCSVSCGAGLRWVNYSCLDQARKELVETVQCQGSQQPPAWPEACVLEPCPPYWAVGDFGPCSASCGGGLRERPVRCVEAQGSLLKTLPPARCRAGAQQPAVALETCNPQPCPARWEVSEPSSCTSAGGAGLALENETCVPGADGLEAPVTEGPGSVDEKLPAPEPCVGMSCPPGWGHLDATSAGEKAPSPWGSIRTGAQAAHVWTPAAGSCSVSCGRGLMELRFLCMDSALRVPVQEELCGLASKPGSRREVCQAVPCPARWQYKLAACSVSCGRGVVRRILYCARAHGEDDGEEILLDTQCQGLPRPEPQEACSLEPCPPRWKVMSLGPCSASCGLGTARRSVACVQLDQGQDVEVDEAACAALVRPEASVPCLIADCTYRWHVGTWMECSVSCGDGIQRRRDTCLGPQAQAPVPADFCQHLPKPVTVRGCWAGPCVGQGTPSLVPHEEAAAPGRTTATPAGASLEWSQARGLLFSPAPQPRRLLPGPQENSVQSSACGRQHLEPTGTIDMRGPGQADCAVAIGRPLGEVVTLRVLESSLNCSAGDMLLLWGRLTWRKMCRKLLDMTFSSKTNTLVVRQRCGRPGGGVLLRYGSQLAPETFYRECDMQLFGPWGEIVSPSLSPATSNAGGCRLFINVAPHARIAIHALATNMGAGTEGANASYILIRDTHSLRTTAFHGQQVLYWESESSQAEMEFSEGFLKAQASLRGQYWTLQSWVPEMQDPQSWKGKEGT
fluorescence of the recombinant peptide during incubation (FRET self-quenching cleavage assay, 96 well plate, fluorometer): With normal pooled plasma (PNP), there is steady increase of fluorescence over time
